{"source": "paper PMC5484490", "key": {"[1]": {"biological_target": "wild type full length human Hsp90β with non-cleavable His6-tag (human)", "assay": "SEC-MALS; SEC-MALLS on Superdex 200, 0.35 ml/min, 25 mM Na-phosphate pH 7.2, 150 mM NaCl, 5 mM DTT; 10 ul of ~29 g/l loaded; legend: 2.2 uM monomer concentration"}, "[2]": {"biological_target": "wild type full length human Hsp90β with non-cleavable His6-tag (human)", "assay": "AUC; sedimentation at 42,000 rpm, 20°C, 16 hours, 7.2 uM Hsp90 in 25 Na-phosphate pH 7.2, 150 mM NaCl, 150 mM KCl, 5 mM DTT, protease inhibitor; absorbance optics; SedFit"}}, "note": "“And” between values parts separate entries of the source, which are not always exact repeats. Equal entries are not always repeated.", "data": [{"substance": "wild type full length human Hsp90β with non-cleavable His6-tag (natural protein; other documents disagree on this pair)", "values": [{"measurement": "stoichiometry N", "setting": "[1]", "result": 2}, {"measurement": "stoichiometry N", "setting": "[2]", "result": "2 and 4"}]}]}
